According to paper PMC3418249, “Binding of Translationally Controlled Tumour Protein to the N-Terminal Domain of HDM2 Is Inhibited by Nutlin-3” (PLoS ONE, 2012):
No end group written: not given here. FAM = carboxyfluorescein

What was measured:
Details in all cases: both partners purified
purified HDM2 (1–125) [1] = target: T1, purified HDM2 (1–125) (human, UniProt Q00987 1-125); assay: fluorescence polarisation; competition: 50 nM FAM-12-1 peptide, 250 nM HDM2 (1–125), competitors TH2/TH3 (50/200/600 µM), control peptide (600 µM), Nutlin-3 (200 µM), p53 peptide; PBS-0.005% Tween-20
T1 construct: source: expressed as GST fusion (pGEX-6P-1), purified (GSTrap, on-column cleavage with precission protease, monoS)

purified HDM2 (1–125) [2] = target: T1, purified HDM2 (1–125); assay: pull-down; biotinylated peptides (10 µg) on streptavidin Dynabeads M-280, incubated with purified HDM2 (1–125) (15 µM) or TCTP (15 or 30 µM) 4 h at 4°C; Western blot; repeated with DMSO or Nutlin-3 (2/20/200 µM)
[3] = target: T2, recombinant full-length TCTP, purified (human (cDNA from AGS cells), UniProt P13693 1-172); assay: pull-down; cobalt beads coated with 20 µM his-tagged HDM2 (17–125), 4 h at 4°C with 7 µM TCTP protein, with or without 200 µM Nutlin-3; Western blot
T2 construct: TCTP, called recombinant full-length TCTP; also called recombinant TCTP; TCTP protein; source: expressed as GST fusion (pGEX-6P-1), purified (GSTrap, on-column cleavage with precission protease, monoQ)
T2 sequence (looked up): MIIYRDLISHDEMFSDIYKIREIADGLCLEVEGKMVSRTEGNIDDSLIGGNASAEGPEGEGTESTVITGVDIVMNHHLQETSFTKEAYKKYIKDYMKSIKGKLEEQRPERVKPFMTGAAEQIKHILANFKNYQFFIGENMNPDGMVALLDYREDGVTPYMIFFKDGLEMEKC

[4] = target: T2, recombinant full-length TCTP, purified; assay: pull-down; biotinylated peptides (10 µg) on streptavidin Dynabeads M-280, incubated with purified HDM2 (1–125) (15 µM) or TCTP (15 or 30 µM) 4 h at 4°C; Western blot; repeated with DMSO or Nutlin-3 (2/20/200 µM)

B1: carboxyfluorescein (FAM) labeled 12-1 peptide (peptide)
peptide: {FAM}-RFMDYWEGL-NH2
notes: also called FAM-labeled p53 peptide (12.1); fluorescently labelled p53 peptide
binding result (purified HDM2 (1–125) [1]): binds

B2: TH2 peptide (TCTP residues 81–110) (peptide)
peptide: GGGSTSFTKEAYKKYIKDYMKSIKGKLEEQRPER
modifications: also: biotin, position not given here
notes: spacer at the N-terminus; TCTP residues 81-110; source: synthetic peptide (Mimotopes)
binding result (purified HDM2 (1–125) [2]): binds

B3: TH3 peptide (TCTP residues 107–133) (peptide)
peptide: GGGSRPERVKPFMTGAAEQIKHILANFKNYQ
modifications: also: biotin, position not given here
notes: spacer at the N-terminus; source: synthetic peptide (Mimotopes)
binding result (purified HDM2 (1–125) [2]): binds

B4: recombinant his-tagged HDM2 (residues 17–125) (domain or fragment, human, UniProt Q00987 17-125, looked up)
chain: SQIPASEQETLVRPKPLLLKLLKSVGAQKDTYTMKEVLFYLGQYIMTKRLYDEKQQHIVYCSNDLLGDLFGVPSFSVKEHRKIYTMIYRNLVVVNQQESSDSGTSVSEN
notes: also called recombinant HDM2 N-terminal domain; source: recombinant
binding result [3]: binds

B5: HDM2 α2 helix peptide (residues 43–65) (peptide)
peptide: GGGSAQKDTYTMKEVLFYLGQYIMTKR
modifications: biotin (position not given)
notes: spacer at the N-terminus; HDM2 α2 helix, residues 43-65; source: synthetic peptide (Mimotopes)
binding result [4]: binds
